# Results from ChEMBL document CHEMBL1134320, “Structure of protein tyrosine phosphatase 1B in complex with inhibitors bearing two phosphotyrosine mimetics” (J Med Chem, 2001).
# Substrate: O=P(O)(O)c1ccc(Cc2ccc(P(=O)(O)O)cc2)cc1
# Experiment: Binding affinity towards the binding site of human protein tyrosine phosphatase 1B (PTP1B) enzyme expressed in Escherichia coli cells
protein,measurement,value
"Tyrosine-protein phosphatase non-receptor type 1 (Homo sapiens), P18031 (protein) MEMEKEFEQIDKSGSWAAIYQDIRHEASDFPCRVAKLPKNKNRNRYRDVSPFDHSRIKLHQEDNDYINASLIKMEEAQRSYILTQGPLPNTCGHFWEMVWEQKSRGVVMLNRVMEKGSLKCAQYWPQKEEKEMIFEDTNLKLTLISEDIKSYYTVRQLELENLTTQETREILHFHYTTWPDFGVPESPASFLNFLFKVRESGSLSPEHGPVVVHCSAGIGRSGTFCLADTCLLLMDKRKDPSSVDIKKVLLEMRKFRMGLIQTADQLRFSYLAVIEGAKFIMGDSSVQDQWKELSHEDLEPPPEHIPPPPRPPKRILEPHNGKCREFFPNHQWVKEETQEDKDCPIKEEKGSPLNAAPYGIESMSQDTEVRSRVVGGSLRGAQAASPAKGEPSLPEKDEDHALSYWKPFLVNMCVATVLTAGAYLCYRFLFNSNT",Km,16 µM
